Target: T1, glutamyl-tRNA synthetase GluRS, C-terminally fused to GFP (S. cerevisiae, UniProt P46655 1-708)
T1 sequence: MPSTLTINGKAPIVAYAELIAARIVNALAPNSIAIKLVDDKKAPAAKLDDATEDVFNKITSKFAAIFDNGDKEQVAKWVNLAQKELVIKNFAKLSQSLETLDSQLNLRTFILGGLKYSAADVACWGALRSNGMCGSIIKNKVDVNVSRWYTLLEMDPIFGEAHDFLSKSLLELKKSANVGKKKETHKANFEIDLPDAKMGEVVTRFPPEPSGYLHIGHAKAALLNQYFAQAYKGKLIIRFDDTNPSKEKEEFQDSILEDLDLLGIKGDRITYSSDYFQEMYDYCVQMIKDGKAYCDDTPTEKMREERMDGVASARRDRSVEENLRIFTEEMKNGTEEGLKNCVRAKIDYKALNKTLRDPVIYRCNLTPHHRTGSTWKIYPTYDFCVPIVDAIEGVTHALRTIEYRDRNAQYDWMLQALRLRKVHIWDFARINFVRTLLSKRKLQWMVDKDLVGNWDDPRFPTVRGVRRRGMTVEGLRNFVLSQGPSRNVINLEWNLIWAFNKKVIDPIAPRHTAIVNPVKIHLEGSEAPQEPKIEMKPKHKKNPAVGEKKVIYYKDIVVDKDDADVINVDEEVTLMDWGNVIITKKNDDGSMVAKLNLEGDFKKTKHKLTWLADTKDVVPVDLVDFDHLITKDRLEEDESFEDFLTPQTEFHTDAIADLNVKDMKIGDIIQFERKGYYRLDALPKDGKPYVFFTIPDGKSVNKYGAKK
Assay: selective ribosome profiling

fold enrichment in footprints: ≥ 30 fold
B1: nascent MetRS (ribosome-nascent chain complexes) (natural protein)
chain: MSFLISFDKSKKHPAHLQLANNLKIALALEYASKNLKPEVDNDNAAMELRNTKEPFLLFDANAILRYVMDDFEGQTSDKYQFALASLQNLLYHKELPQQHVEVLTNKAIENYLVELKEPLTTTDLILFANVYALNSSLVHSKFPELPSKVHNAVALAKKHVPRDSSSFKNIGAVKIQADLTVKPKDSEILPKPNERNILITSALPYVNNVPHLGNIIGSVLSADIFARYCKGRNYNALFICGTDEYGTATETKALEEGVTPRQLCDKYHKIHSDVYKWFQIGFDYFGRTTTDKQTEIAQHIFTKLNSNGYLEEQSMKQLYCPVHNSYLADRYVEGECPKCHYDDARGDQCDKCGALLDPFELINPRCKLDDASPEPKYSDHIFLSLDKLESQISEWVEKASEEGNWSKNSKTITQSWLKDGLKPRCITRDLVWGTPVPLEKYKDKVLYVWFDATIGYVSITSNYTKEWKQWWNNPEHVSLYQFMGKDNVPFHTVVFPGSQLGTEENWTMLHHLNTTEYLQYENGKFSKSRGVGVFGNNAQDSGISPSVWRYYLASVRPESSDSHFSWDDFVARNNSELLANLGNFVNRLIKFVNAKYNGVVPKFDPKKVSNYDGLVKDINEILSNYVKEMELGHERRGLEIAMSLSARGNQFLQENKLDNTLFSQSPEKSDAVVAVGLNIIYAVSSIITPYMPEIGEKINKMLNAPALKIDDRFHLAILEGHNINKAEYLFQRIDEKKIDEWRAKYGGQQV

From PMC6372068 (Nature, 2018)
